The results in this text go back to patent US6528633.

Data set [1] addresses clam E3-C/cyclosome complex, activated, partially purified.
Data set [2] addresses non-specific ubiquitin-protein ligase (E3) from clam oocyte Fraction 1A.

B1: recombinant clam E2-C, bacterially expressed (protein)
chain: MSGQNIDPAANQVRQKERPRDMTTSKERHSVSKRLQQELRTLLMSGDPGITAFPDGDNLFKWVATLDGPKDTVYESLKYKLTLEFPSDYPYKPPVVKFTTPCWHPNVDQSGNICLDILKENWTASYDVRTILLSLQSLLGEPNNASPLNAQAADMWSNQTEYKKVLHEKYKTAQSKDK
Turning to B1, the “half-maximal activation of cyclin ubiquitination” value in data set [1] is recorded as “half-maximal activation was obtained with 0.05 µM recombinant E2”. Also, the “formation of ubiquitin-protein conjugates” value in data set [2] is “the recombinant clam E2 had no significant influence on the formation of ubiquitin-protein conjugates by the non-specific E3”.
